Data from IntAct's records for PubMed 17675380.

B1: Enterobactin synthase component B (Escherichia coli (strain K12)), P0ADI4 (parent)
chain: MAIPKLQAYALPESHDIPQNKVDWAFEPQRAALLIHDMQDYFVSFWGENCPMMEQVIANIAALRDYCKQHNIPVYYTAQPKEQSDEDRALLNDMWGPGLTRSPEQQKVVDRLTPDADDTVLVKWRYSAFHRSPLEQMLKESGRNQLIITGVYAHIGCMTTATDAFMRDIKPFMVADALADFSRDEHLMSLKYVAGRSGRVVMTEELLPAPIPASKAALREVILPLLDESDEPFDDDNLIDYGLDSVRMMALAARWRKVHGDIDFVMLAKNPTIDAWWKLLSREVK
partner: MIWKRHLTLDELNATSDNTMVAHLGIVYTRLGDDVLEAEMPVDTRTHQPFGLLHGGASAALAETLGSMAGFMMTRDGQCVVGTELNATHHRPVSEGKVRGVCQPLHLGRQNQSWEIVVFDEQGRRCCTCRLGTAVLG

Variants of: B1
Conditions: with enth_ecoli entH

effect of a mutation on the interaction	Variant
decreasing interaction strength	MAIPKLQAYALPESHDIPQNKVDWAFEPQRAALLIHDMQDYFVSFWGENCPMMEQVIANIAALRDYCKQHNIPVYYTAQPKEQSDEDRALLNDMWGPGLTRSPEQQKVVDRLTPDADDTVLVKWRYSAFHRSPLEQMLKESGRNQLIITGVYAHIGCMTTATDAFMRDIKPFMVADALADFSRDEHLMSLKYVAGRSGRVVMTEELLPAPIPASKAALREVILPLLDESDEPFDDDNLIDYGLDAVRMMALAARWRKVHGDIDFVMLAKNPTIDAWWKLLSREVK [S245A]
